Broadly, the Kd is the free concentration of one partner at which half of the binding sites on the other are occupied at equilibrium, for simple one-to-one binding. A low value points to tighter binding.

The test system of this series is GST-DDX6 (human). Put plainly: EMSA. On the technique in general: In EMSA bound probe runs differently from free probe, usually more slowly.

With CUG-200 RNA, the dissociation constant Kd is below 250 nM.

(Values after paper PMC4066779.)
